Consider 2 molecules from US20080032921A1.

The target of experiment [1] is purified HLA DRB1*0101 (human). Put plainly: competition with 125I-labelled reference peptide, purified HLA.
Experiment [2] addresses purified HLA DRB1*0301 (human). Described as above.
The target in experiment [3] is purified HLA DRB1*0401 (human). The experiment is described as above.
Experiment [4] has as its target purified HLA DRB1*0404 (human). Described as above.
The target of experiment [5] is purified HLA DRB1*0405 (human). Described as above.
Experiment [6] deals with purified HLA DRB1*0701 (human). Described as above.
For experiment [7], the target named is purified HLA DRB1*1101 (human). The description is as above.
The target of experiment [8] is purified HLA DRB1*1302 (human). The experiment is described as above.
The target in experiment [9] is purified HLA DRB1*1501 (human). Described as above.
The target of experiment [10] is purified HLA DRB4*0101 (human). The description is as above.
Experiment [11] addresses purified HLA DRB5*0101 (human). Described as above.
The target of experiment [12] is HLA-DR DRB1*0101 (human). Put plainly: competition with 125I-labelled peptide for purified HLA-DR.
In experiment [13] the target is HLA-DR DRB1*0301 (human). The experiment is described as above.
In experiment [14] the target is HLA-DR DRB1*0401 (human). The experiment is described as above.
The target in experiment [15] is HLA-DR DRB1*0404 (human). The experiment is described as above.
Experiment [16] addresses HLA-DR DRB1*0405 (human). The description is as above.
Experiment [17] concerns the target HLA-DR DRB1*0701 (human). Described as above.
Experiment [18] deals with HLA-DR DRB1*0802 (human). Described as above.
The target in a further experiment is HLA-DR DRB1*0901 (human). The experiment is described as above.
For experiment [19], the target named is HLA-DR DRB1*1101 (human). The experiment is described as above.
Experiment [20] deals with HLA-DR DRB1*1302 (human). The experiment is described as above.
Experiment [21] has as its target HLA-DR DRB1*1501 (human). Described as above.
The target of experiment [22] is HLA-DR DRB4*0101 (human). Described as above.
The target in experiment [23] is HLA-DR DRB5*0101 (human). The description is as above.
For experiment [24], the target named is HLA-DR DRB1*0101 (human). Put plainly: competition with 125I-labeled reference peptide, purified HLA.
In experiment [25] the target is HLA-DR DRB1*0301 (human). The description is as above.
Experiment [26] addresses HLA-DR DRB1*0401 (human). The experiment is described as above.
For experiment [27], the target named is HLA-DR DRB1*0404 (human). The experiment is described as above.
Experiment [28] concerns the target HLA-DR DRB1*0405 (human). Described as above.
Experiment [29] has as its target HLA-DR DRB1*0701 (human). The experiment is described as above.
Experiment [30] deals with HLA-DR DRB1*0802 (human). The experiment is described as above.
The target in experiment [31] is HLA-DR DRB1*1101 (human). The experiment is described as above.
For experiment [32], the target named is HLA-DR DRB1*1302 (human). The experiment is described as above.
The target of experiment [33] is HLA-DR DRB1*1501 (human). The experiment is described as above.
Experiment [34] addresses HLA-DR DRB4*0101 (human). The experiment is described as above.
For experiment [35], the target named is HLA-DR DRB5*0101 (human). The experiment is described as above.

On to AKSMEYDAVATTHSW (modifications not checked) [Flu.PB1.655], for which the IC50 (commonly the point on the concentration scale where inhibition reaches its midpoint) in experiment [1] came to 202 nM; in experiment [2], 909 nM; in experiment [3], 53 nM; in experiment [4], 646 nM; in experiment [5], 626 nM; in experiment [6], 292 nM. Besides, the IC50 in [7] is 6.62 µM; in [8], 2180 nM; in experiment [9] it was 1990 nM; in [10], 6.34 µM; in [11], 3.53 µM.
Consider RREVHIYYLEKANKI (modifications not checked) [Flu.PA.127], for which the IC50 is 34 nM in the experiment with HLA-DR DRB1*0101 (human) [12]; > 10 µM in the experiment with HLA-DR DRB1*0301 (human) [13]; 63 nM with HLA-DR DRB1*0401 (human) [14]; 181 nM with HLA-DR DRB1*0404 (human) [15]; 1490 nM with HLA-DR DRB1*0405 (human) [16]; 23 nM with HLA-DR DRB1*0701 (human) [17]. Moreover, the IC50 stood at 95 nM with HLA-DR DRB1*0802 (human) [18]; 851 nM with HLA-DR DRB1*0901 (human); 96 nM in the experiment with HLA-DR DRB1*1101 (human) [19]; 150 nM with HLA-DR DRB1*1302 (human) [20]; 4.5 nM with HLA-DR DRB1*1501 (human) [21]; 5 nM with HLA-DR DRB4*0101 (human) [22]. The half-maximal inhibitory concentration (IC50) in the experiment with HLA-DR DRB5*0101 (human) [23] was 25 nM; in the experiment with HLA-DR DRB1*0101 (human) [24], 34 nM; with HLA-DR DRB1*0301 (human) [25], > 10 µM; with HLA-DR DRB1*0401 (human) [26], 63 nM; with HLA-DR DRB1*0404 (human) [27], 181 nM; in the experiment with HLA-DR DRB1*0405 (human) [28] it was 1490 nM. Further, the IC50 came to 23 nM with HLA-DR DRB1*0701 (human) [29]; 95 nM with HLA-DR DRB1*0802 (human) [30]; 96 nM in the experiment with HLA-DR DRB1*1101 (human) [31]; 150 nM with HLA-DR DRB1*1302 (human) [32]; 4.5 nM with HLA-DR DRB1*1501 (human) [33]; 5 nM with HLA-DR DRB4*0101 (human) [34]. In the experiment with HLA-DR DRB5*0101 (human) [35], this molecule showed a concentration for half-maximal inhibition (IC50) of 25 nM.
